Data published in patent US11193929.
Where no end group is shown, it is not given here. [ ]: non-standard residue; d: D form. AEEA = NCCOCCOCC(=O)O

Columns and labels:
[1] = biological target: 3D5F7 monoclonal antibody, Fab' fragment coupled to alkaline phosphatase; assay: VIDAS one-step sandwich immunoassay; capture 19C7+B90 on tip, detection 3D5F7+7B9 Fab'-alkaline phosphatase; peptide (200 ng/mL peptide)
[2] = biological target: 3D5F7 monoclonal antibody, Fab' fragment coupled to alkaline phosphatase; assay: VIDAS one-step sandwich immunoassay; capture 19C7+B90 on tip, detection 3D5F7+7B9 Fab'-alkaline phosphatase; peptide (100 ng/mL peptide)
[3] = biological target: 3D5F7 monoclonal antibody, Fab' fragment coupled to alkaline phosphatase; assay: VIDAS one-step sandwich immunoassay; capture 19C7+B90 on tip, detection 3D5F7+7B9 Fab'-alkaline phosphatase; peptide at (500 ng/mL peptide)
[4] = biological target: 3D5F7 monoclonal antibody, Fab' fragment coupled to alkaline phosphatase; assay: VIDAS one-step sandwich immunoassay; capture 19C7+B90 on tip, detection 3D5F7+7B9 Fab'-alkaline phosphatase; peptide (50 ng/mL peptide)
[5] = biological target: 3D5F7 monoclonal antibody, Fab' fragment coupled to alkaline phosphatase; assay: VIDAS one-step sandwich immunoassay; capture 19C7+B90 on tip, detection 3D5F7+7B9 Fab'-alkaline phosphatase; peptide (20 ng/mL peptide)
[6] = biological target: 3D5F7 monoclonal antibody, Fab' fragment coupled to alkaline phosphatase; assay: VIDAS one-step sandwich immunoassay; capture 19C7+B90 on tip, detection 3D5F7+7B9 Fab'-alkaline phosphatase; peptide at (1000 ng/mL peptide)
[7] = biological target: 3D5F7 monoclonal antibody, Fab' fragment coupled to alkaline phosphatase; assay: VIDAS one-step sandwich immunoassay; capture 19C7+B90 on tip, detection 3D5F7+7B9 Fab'-alkaline phosphatase; peptide at (4000 ng/mL peptide)
[8] = biological target: 3D5F7 monoclonal antibody, Fab' fragment coupled to alkaline phosphatase; assay: VIDAS one-step sandwich immunoassay; capture 19C7+B90 on tip, detection 3D5F7+7B9 Fab'-alkaline phosphatase; peptide at (2000 ng/mL peptide)
[9] = biological target: 3D5F7 monoclonal antibody, Fab' fragment coupled to alkaline phosphatase; assay: VIDAS one-step sandwich immunoassay; capture 19C7+B90 on tip, detection 3D5F7+7B9 Fab'-alkaline phosphatase; (10 ng/mL peptide)
[10] = biological target: 3D5F7 monoclonal antibody, Fab' fragment coupled to alkaline phosphatase; assay: VIDAS one-step sandwich immunoassay; capture 19C7+B90 on tip, detection 3D5F7+7B9 Fab'-alkaline phosphatase; compound (50 ng/mL peptide)
[11] = biological target: 3D5F7 monoclonal antibody, Fab' fragment coupled to alkaline phosphatase; assay: VIDAS one-step sandwich immunoassay; capture 19C7+B90 on tip, detection 3D5F7+7B9 Fab'-alkaline phosphatase; compound at (20 ng/mL peptide)
[12] = biological target: 3D5F7 monoclonal antibody, Fab' fragment coupled to alkaline phosphatase; assay: VIDAS one-step sandwich immunoassay; capture 19C7+B90 on tip, detection 3D5F7+7B9 Fab'-alkaline phosphatase; compound (5 ng/mL peptide)
[13] = biological target: 3D5F7 monoclonal antibody, Fab' fragment coupled to alkaline phosphatase; assay: VIDAS one-step sandwich immunoassay; capture 19C7+B90 on tip, detection 3D5F7+7B9 Fab'-alkaline phosphatase; compound at (1 ng/mL peptide)
[14] = biological target: 3D5F7 monoclonal antibody, Fab' fragment coupled to alkaline phosphatase; assay: VIDAS one-step sandwich immunoassay; capture 19C7+B90 on tip, detection 3D5F7+7B9 Fab'-alkaline phosphatase; peptide at 2 ng/mL

signal in RFV [1] [RFV]	signal in RFV [2] [RFV]	signal in RFV [3] [RFV]	signal in RFV [4] [RFV]	signal in RFV [5] [RFV]	signal in RFV [6] [RFV]	signal in RFV [7] [RFV]	signal in RFV [8] [RFV]	signal in RFV [9] [RFV]	signal in RFV [10] [RFV]	signal in RFV [11] [RFV]	signal in RFV [12] [RFV]	signal in RFV [13] [RFV]	signal in RFV [14] [RFV]	Binder
356	69	1820	21	2	3800	7540	6140							ATEPHAKKKCAGLGFAELQDL ((Ado)2 (dimer of 8-amino-3,6-dioxaoctanoic acid) between ATEPHAKKK and C and between C and AGLGFAELQDL; C-terminal amide) [Noncoupled peptide 1]
								1690	6210	3280	882	175	360	ATEPHAKKK[AEEA][AEEA]CAGLGFAELQDL-NH2 (peptide, part only; not given: polyclonal rabbit IgG carrier, part only, not fully specified (some residues); numbers in words are those of the source; also: Cys thioether-coupled to IgG carrier, about 10 peptides per IgG) [Compound 3 (Peptide 1 - IgG)]
